# Laboratory results reported in patent publication US8216580B2, “Sulfatases and methods of use thereof” (The Regents of the University of California, priority 2000, dated 2012).
# Experiment: Arylsulfatase activity assay with 4-MUS substrate
# Format: biochemical
# Experimental: The 100-fold concentrated conditioned medium (CM) derived from each transfection of CHO cells as described above was dialyzed into 50 mM HEPES, pH 8.0. The His-tagged fusion proteins were bound to a Ni-NTA resin (QIAGEN) by rotation at 4° C. over night, then washed with 50 mM HEPES (pH 8.0), 3 times. 250 mM imidazole in 50 mM HEPES, pH 8.0 was used to elute the His-tagged fusion proteins from Ni-NTA. The resins with boud material or the eluates were mixed with 10 mM 4-methylumbelliferyl-sulfate (4-MUS; a substrate for sulfatases), and 10 mM lead acetate, in a total volume of 100 μl. The reaction mixtures were incubated at 37° C. for various periods of time. Reactions were terminated by the addition of 100 μl of 0.5 M Na2CO3/NaHCO3, pH 10.7 to 20 μl of the reaction mixture. The fluorescence of 4-methylumbelliferone was measured on a Multi-Well Plate Reader CytoFluorII (PerSeptive Biosystems). The fluorescence was determined at an excitation wavelength of 360 nm and emission wavelength of 460 nm. A substrate dose response curve was performed over the concentration range of 1 to 10 mM 4-MUS.
# The synthetic fluorogenic compound 4-methylumbelliferyl sulfate (4-MUS) serves as a substrate for most sulfatases, both in the lysosomal and non-lysosomal classes. CHO cells were transfected with a cDNA for HSulf-1 or HSulf-2 or a vector control. Conditioned medium was collected and incubated with nickel resin (Ni-NTA) to bind the His-tagged recombinant proteins. The bead-bound material was assayed for activity on 4-MUS. For both enzymes, hydrolysis depended on time of reaction (FIG. 15A), concentration of substrate (FIG. 15B), and amount of CM (FIG. 15C). From the substrate dose-response curves of FIG. 15B and based on estimates of Sulf protein levels in CM, we approximated Vmax for the two Sulfs to be in the range of 1000-2000 nmol per min per mg of Sulf protein. Human glucosamine-6-sulfatase has a considerably lower Vmax against 4-MUS ([…]) whereas the Vmax of human N-acetylgalactosamine-4-sulfatase (arylsulfatase B) is much higher (48000).
# HSulf-1, HSulf-2 or their mutated forms (HSulf-1 ΔCC and HSulf-2 ΔCC) was purified from the conditioned medium of transfected CHO cells by binding to Ni-NTA beads. A) The bead-bound material was tested for arylsulfatase activity as a function of time against 10 mM 4-MUS substrate at pH 8. The “no-enzyme” control was based on testing conditioned medium from vector-control transfected CHO cells. No activity was detected in the absence of added substrate (not shown). […] The activity of each Sulf was determined relative to that of beads exposed to an equivalent volume of vector-control conditioned medium. The activity of HG6S was determined (24 hr incubation) relative to that of the buffer. […]
Substance,"arylsulfatase activity of cysteine-to-alanine mutants (4-MUS, pH 8, 2 hr, mutant protein levels in CM equivalent to wild-type)","sulfatase activity (His-tagged fusion proteins from CHO conditioned medium, 10 mM 4-MUS, 37° C.)"
"HSulf-2 ΔCC: catalytically inactive HSulf-2, cysteines 88 and 89 mutated to alanines (CC88, 89AA)",Lack of the activity,
"HSulf-2: Human SULF2, an 870 amino acid sulfatase protein, SEQ ID NO:06; expressed with C-terminal Myc-His tag",,Time-dependent sulfatase activity was detected
